Results on 40 sequences are retold here after the nanobody polyreactivity screen of Harvey et al. (2022).

The series is described as follows: yeast display, Sf9 membrane polyspecificity reagent, FACS + sequencing; frameworks hold sequencing errors. In a few lines:
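Polyreactivity labels are assigned by the sorting gate from which each nanobody was recovered. The gates were low and high (top ~1%), set on anti-HA fluorescence for expression and streptavidin fluorescence for reagent binding. Before sorting, galactose-induced (36–48 hours) yeast display cells were stained for 1 hour at 4 °C with 10% biotinylated, detergent-solubilized Sf9 membrane reagent.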
Consider “QVQLVESGGGLVQAGGSLRLSCAASGITFGYYAMGWYRQAPGKERELVASITSGGSTNYADSVKGRFTISRDNAKNTVYLQMNSLKPEDTAVYYCAKRYYRQYDYWGQGTQVTVSS”, for which the “polyreactivity (PSR sort gate)” value is listed as “low polyreactivity”. Consider “QVQLVESGGGLVQAGGSLRLSCAASGRTFSYNTMGWYRQAPGKERELVAAIDSDGSTNYADSVKGRFTISRDNAKNTVYLQMNSLKPEDTAVYYCAADRFQCGFWWLEYWGQGTQVTVSS”, for which the “polyreactivity (PSR sort gate)” value is listed as “high polyreactivity”. With “QVQLVESGGGLVQAGGSLRLSCAASGSIFYRNAMGWYIQAPGKERELVAAISRRGGITYYADSVKGRFTISRDNAKNTVYLQMNSLKPEDTAVYYCYTDTGGMDYWGQGTQVTVSS”, the “polyreactivity (PSR sort gate)” value was “high polyreactivity”. The entry for “QVQLVESGGGLVQAGGSLRLSCAASGRIFVGYPMGWYRQAPGKERELVAAITSGGSTYYADSVKGRFTISRDNAKNTVSFQMNSLKPEDTAVYYCNAAYQFDSYHLGGYRYEYWGQGTQVTVSS” is “low polyreactivity”; for “QVQLVESGVGLVKAGGSLRLSCAASGITFGFYAMGWYRQAPGKDRELVASISSRGGSTNYADSVKGRFTISRDNAKNTVYLQMNSLKPEDTAVYYCAVAWLVRGGGGRRTFYSWGQGTQVTVSS” it is “high polyreactivity”; for “QVQLVESGGGLFQAGGSLRLSCAASGSIFTRYAMGWYRQAPGKERELVAAISNRGGRTYYADSVKGRFTISRDNAKNTVYLQMNILKPEDTAVYYCNAATTRRIPQSDNYWGQGTQVTVSS” it is “high polyreactivity”. With “QVQLVESGGGLVQAGGRLRLSCAASGSIFRIYTMGWYRQEPGKERELVAAINSGGSTNYADSVKGRFTISRDNAKNTVYLQMNSLKPEDTAVYYCAATWWQYDQGLHRYDYWGQGTQVTVSS” the entry was “high polyreactivity”; with “QVQLVESGGGLVQAGGSLRLSCAASGSTFAPYAMGWYRQAPGKERELVAAIRSSGGSTYYADSVKGRFTISRDNAKNTVYLQMNSLKPEDTAVYYCADDYYTSADYVDYYYWGQGTQVTVSS”, “low polyreactivity”. The entry for “QVQLVESGGGLVQAGGSLRLSCAASGIIFQIYAKGWYRQAPGKERELVAAISGGGNTDYADSVKGRFTISRDNAKNTVYLQMNSLKPEDTAVYYCAADFVDWVWSRYGLFEHDYWGQGTQVTVSS” is “low polyreactivity”; for “QVQLVESGGGLVQAGGSLRLSCAASGNTFIYYAMGWYRQAPGKERELVAAITWSGGSTYYADSVKGRFTISRDNAKNTVYLQMNSLKPEDTAVYYCAKFTHNYYYWGQGTQVTVSS” it is “high polyreactivity”. “QVQLVESGGGLVQAGGSLRLSCAASGNIFRSYAMGWYRQAPGKERELVAAISSRGGSTYYADSVKGRFTISRDNAKNTVYLQMNSLKPEDTAVYYCNAPSTQQGPKYDYWGQGTQVTVSS”: the “polyreactivity (PSR sort gate)” value is recorded as “low polyreactivity”. The entry for “QVQLVESGGGLVQAGGSLRLSCAASGIIFKSYTMGWYRQAPGKERELVAAINSSGDRTYYADSVKGRFTISRDNAKNTVYLQMNSLKPEDTAVDYCAAAPVKKSRFRYDYWGQGTQVTVSS” is “high polyreactivity”. With “QVQLVESGGGLVQAGGSLRLTCAASGNTFVSNAMGWYRQAPGKERELVAAINSGGSTNYADSVKGRFTISRDNAKNTVYLQMNSLKPEDTAVYYCNKDYDYPQRYWMDFWGQGTQVTVSS” the entry was “low polyreactivity”. Consider “QVQLVESGGGLVQAGGSLRLSCAASGSISAGNAMGWYRQAPGKERELVAAISISAGRTYYADSVKGRFTISRDNAKNTVYLQMNSLKPEDTAVYYCNAYSSYIKYDYWGQGTQVTVSS”, for which the “polyreactivity (PSR sort gate)” value is recorded as “high polyreactivity”. The entry for “QVLLVESGGGLVQAGGSLRLSFAASGITFYGYDMGWYRQATGKERELVAAITSDGITNYADSVKGRFTISRDNAKNTVYLQMNSLKPEDTAVYYCAADVSFYRRYEWYYYWGQGTQVTVSS” is “low polyreactivity”; for “QVQLVESGGGLVQAGGSLRLSCAASGFIFEWYDMGWYRQAPGKERELVASISWSGGSTYYADSVKGRFTISRDNAKNTVYLQMNSLKPEDTAVYYCNTPSYTYWHWYDYWGQGTQVTVSS” it is “high polyreactivity”; for “QVQLVESGGGLVQAGGSLRLSCAASGSTFLFYAMGWYRQAPGKEREFVAAITWSGGSTYYADSVKGRFTISRDNAKNTVYLQMNSLKPEDTAVYYCNGYYVPTTGREFYFAFYYWGQGTQVTVSS” it is “low polyreactivity”.

In the case of “QVQVVESGGGLVQAGGSLRLSCAASGRIFAKYAMGWYIQAPGKERELVAAIDLSDGSTSYADSVKGRFTISRDNAKNTVYLQMNSLKPEDTAVYYCAKTWANVYAGAHDYWGQGTQVTVSS”, the “polyreactivity (PSR sort gate)” value is “low polyreactivity”. With “QVQLVESGGGLVQAGGSLRLSCAASGSTISPYAMGWYRQAPGKEREFVAAISRSGGSTYYADSVKVRFTISRDNAKNTVYLQMNSLKPEDTAVYYCARRYARITPVYPPLNYWGQGTQVTVSS” the entry was “high polyreactivity”; with “QVQLVESGGGLVQAGGSLRLSCAASGSIFAYYAMGWYRQAPGKERELVAAISSGGGTYYADSVKGRFTISRDNAKNTVYLQMNSLKPEDTAVYYCARRYRAHYQYLYDYWGQGTQVSVSS”, “low polyreactivity”. On to “QVQLVESGGGLVQAGGSLRLSCAASGITFYDNAMGWYRQAPGKERELVAGISYDGDSTYADSVKGRFTISRDNAKNTVYLQMNSLKPEDTAVYYCAALGPYDWLWAGDYWGQGTQVTVSS”, for which the “polyreactivity (PSR sort gate)” value is “low polyreactivity”.

Turning to “QVQLVESGGGLVQAGGSLRLSCAASGSLFGYNAIGRYRQARGKERELVAAITGSGGSTYYADSVKGRFTLSRDNAKNTVYFQMNSLKPEDTAVYYCADDLFGGPLGYWDYDYWGQGTQVTVSS”, the “polyreactivity (PSR sort gate)” value was “low polyreactivity”. Take “QVQLVESGGGLVQAGGSLRLSCAASGFIFYDYDMGWYRPAPGKERELVAAITYSGGSTYYADSVKGRFTISRDNAKNTVYLQMNSLKPEDTAVYYCAAVKSRYAEAVDYYYWGQGTQVTVSS”: the “polyreactivity (PSR sort gate)” value is reported as “low polyreactivity”. For the sequence “QVQLVESGGGLVQAGGSLRLSCAASGITFKSNAMGWYRQAPGKERELVAAISRRASSTYYADSVKGRFTISRDNAKNTVYLQRNSLNPEDTAVYYCNAVLPVYRTNMDYWGQGTQVSVSS”, the “polyreactivity (PSR sort gate)” value is on record as “high polyreactivity”. The entry for “QVQLVESGGGLVQAGGSLRLSCAASGFTFGIYDMGWYRQAPGKERELVAAISWRGVSTYYADSVKGRFRISRDNAKNTVYLQMNSLKPEDTAVYYCNAVDTDGDLYPINYPYDYGYDYWGQGTQVTVSS” is “low polyreactivity”; for “QVQLVESGGGLVQAGGSLRLSCAASGRTFTLYTMGWYRQAPGKERELVAAIRYSGGSTYYADSVKGRFTISRDNAKNTVYLHMNSLKPEDTAVYYCAARSYYYGFLYRYDYWGQGTQVTVSS” it is “low polyreactivity”. On to “QGQLVESGRGLVQAGGSLRLSCAASGRIFYSYAMGWYRQAPGKERELVAAISSGGSTKYADSVKGRFTISRDNAKNTVYLQMNSLKPEDTAVYYCAARTYQKGGRYYYWGQGTQVTVSS”, for which the “polyreactivity (PSR sort gate)” value was “high polyreactivity”. The entry for “QVQLVESGGGLVQAGGSLRLSCAASGSIFYYYAMGWSRQAPGKEREFVAAIRESGGSTYYADSVKGSFTISRDNAKNTVYLQMNSLKAEDTAVYYCAVRRPRRNYNYPYDYWGQGTQVTVSS” is “low polyreactivity”; for “QVQLVESGGGLVQAGGSLRLSCAASGSIFNSYDMGWYRQAPGKERELVAAIRSRVGSTYYADSVKGRFTISRDNAKNSVYLQMNSLKQEDTAVYYCIKDNAVDRLPWFQVTYDYWGQGTQVTVSS” it is “low polyreactivity”. As to “QVQLVESGGGLVQAGGSLRLSCAASGFTFYDYSMGWYRQAPGTERELVAASSDSGGITYYADSVKGRFTISRDNAKNTVYLQMNRLKPEDTAVYYCAADFATPGPEYDYWGQGTQVTVSS”, the “polyreactivity (PSR sort gate)” value is “low polyreactivity”. For “QVQLVESGGGLVQAGGSLRLSCAASGRIFSHNVMGWYRQAPGKERELVAAISGRDGSTYYADSVKGRFTISRDNAKNTVYLQMNSLKPEDTAVYYCATDTSNVEGDYWGQGTQVTVSS”, the “polyreactivity (PSR sort gate)” value is listed as “low polyreactivity”. Consider “QVQLVESGGGLVQAGGSLRLSCAASGRIFYWYVMGWYRQAPGKERELVASISWSGGSTYYADSVKGRFTISRDNAKNTVYLQMNSLKPEDTAVYYCNAGSVYTVSLPGHPYDYWGQGTQVTVSS”, for which the “polyreactivity (PSR sort gate)” value is recorded as “low polyreactivity”. The entry for “QVQIVESGGGLVQAGGSLRLSCAASGGIFAVNAMGWYRQAPGKERELVASITRTGGSTSYEDSVKGRFTISRDNAKNTVYLQMNSLKPEDTAVYYCAAGWQVVLSTNGMDYWGQGTQVTVSS” is “high polyreactivity”; for “QVHLVESGGGLVQAGGSLRLSCAASGSTFTLNAMGWYRQAPGKERELVAAITWDGGSTYYADSVKGRFTISRDNAKNTVYLQMNSLKPEDTAVYFCAADREFWWEVVYTYEYYYWGQGTQVTVSS” it is “low polyreactivity”; for “QVQLVESGGGLVQAGGSLRLSCAASGSIFAYNAMGWYRQAPGKERELVATINWIGGRTYYADSVKGRFTISRDNAKNTVYLQMNSLKPEDTAVYYCAKERWYLGVSNGHVLVDYDHWGQGTQVTVSS” it is “low polyreactivity”. As for “QVQRVESGGGLVQAGGSLLLSCAASGRTIRHNAMGWYRPAPGKERELVAAISRSGGSTYYADSVKGRFTISRDKAKNTVYLLMNSLKPEDTAVYYCAAGYHGYDWGQGTQVTVSS”, the “polyreactivity (PSR sort gate)” value was “high polyreactivity”. Turning to “QVQLVESGVGLVQAGGSLRLSCAASGRTFVGNAMGWYRQAPGKERELVAAISVSGGSTYYADSVKGRFTISRDNAKNTVYVQMNSLKPEDTAGYYCAADGYYNRYGYRTSDESEYWGQGTQVTVTS”, the “polyreactivity (PSR sort gate)” value is listed as “low polyreactivity”. For “QGQLVETGGGLVQAGGSLRLSCAASGRSSVSMLMGWYRQPPGKERELVARITGSGGSTFYADSVKGRFTISRDNAKNTVYLQMNSLIPEDTAVYYCAAGYLWRGRYNYWGQGTQVTVSS”, the “polyreactivity (PSR sort gate)” value was “high polyreactivity”. On to “QVQHVESGGGLVQAGGSLRLSCAASGFTFRHNAMGWYRQAPGKERELVAAMTKSGRRTYDADSVKGRFTISRDNAKNTVYLQMNSLKPEDTAVYYCKKDLRQSYANVDYWGQGTQVTVSS”, for which the “polyreactivity (PSR sort gate)” value is reported as “high polyreactivity”. As to “QVQLVESGGGLVQAGGSLRLSCAASGRTFMRYAMGWYRQAPGKERELVAAISRGGGRTYYADSVKGRFTISRDNAKNTVYLQMNSLKPEDTAVYYCAADLSPEYDYWGQGTQVTVSS”, the “polyreactivity (PSR sort gate)” value is listed as “high polyreactivity”.
